“Also recorded” adds a separate entry of the source. Ends that are not written are not given here.
B1: S100A8/A9: RAGE ligand (protein)
chain 1: MLTELEKALNSIIDVYHKYSLIKGNFHAVYRDDLKKLLETECPQYIRKKGADVWFKELDINTDGAVNFQEFLILVIKMGVAAHKKSHEESHKE
chain 2: MTCKMSQLERNIETIINTFHQYSVKLGHPDTLNQGEFKELVRKDLQNFLKKENKNEKVIEHIMEDLDTNADKQLSFEEFIMLMARLTWASHEKMHEGDEGPGHHHKPGLGEGTP

Key:
RAGE = molecular target: T1, RAGE (Mus musculus, UniProt Q62151); experiment: Ang II-induced ICAM-1 gene expression in murine SVEC; format: cell-based; settings: murine SVEC endogenously replete in RAGE; transfected constructs; 1 μM Ang II; FIG. 12A, 12B, 12D
T1 construct: in murine SVEC that are endogenously replete in RAGE expression; host or cells: Svec4-10 mouse endothelial cells
T1 sequence (Q62151 23-402): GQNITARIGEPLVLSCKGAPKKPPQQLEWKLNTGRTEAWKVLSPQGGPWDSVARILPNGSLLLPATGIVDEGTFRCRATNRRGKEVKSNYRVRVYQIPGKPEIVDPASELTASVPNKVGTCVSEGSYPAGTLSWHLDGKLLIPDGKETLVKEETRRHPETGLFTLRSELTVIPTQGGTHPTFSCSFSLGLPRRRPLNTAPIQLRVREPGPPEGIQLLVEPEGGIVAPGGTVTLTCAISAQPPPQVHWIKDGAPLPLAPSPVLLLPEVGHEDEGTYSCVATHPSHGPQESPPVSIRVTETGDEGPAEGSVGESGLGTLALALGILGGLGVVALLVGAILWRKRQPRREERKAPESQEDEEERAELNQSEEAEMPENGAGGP
Experimental: To explore the potential for RAGE constructs to inhibit transactivation of endogenous RAGE, additional experiments were conducted in immortalized mouse endothelial cells (Svec4-10, ATCC) cultured in 10% FBS/DMEM with 25 mM glucose were used. SVEC were transfected with truncated RAGE constructs using Lipofectamine 2000 (Invitrogen) as per manufacturer's instructions, or treated with RAGE oligopeptides (280 μM). Cells were allowed to recover in media containing 10% FBS for 16 hours prior to treatment with 1 μM Ang II.

[1] = tested on: RAGE ligand-independent activation of RAGE by activated AT1R; experiment: Ang II-induced NFκB activation (p65 gene expression, SEAP reporter) in AT1R-CHO cells with RAGE constructs; format: cell-based, human; settings: construct expressed in AT1R-CHO cells, no wild-type RAGE
Experimental: (§1) Generation of Transgenic Chinese Hamster Ovary Cells
(§2) 100 ng of AT1R-Rluc8 construct was transfected into CHO cells using Lipofectamine 2000 (Thermo). Stable transfectants were selected using G418. AT1R—CHO were then transiently transfected with RAGE constructs using Lipofectamine 2000 (Invitrogen) and incubated for 16 h. The Homo sapiens AGER transcript variant 1 coding sequence (NM_001136) was synthesised and cloned between the NheI and XbaI sites of pCIneo (Promega) to generate the vector pCIneo-RAGE. This plasmid was then used to generate a library of mutant AGER clones (NP_001127). Primers 1-RAGE-SP-5′ and mCherry-XhoI-NotI-3′ were used to amplify the coding sequence of mCherry from the vector pmCherry-C1. The resultant PCR product was then used as template for a second PCR using primers 2-RAGE-SP-5′ and mCherry-XhoI-NotI-3′. The PCR product generated was digested with NheI and NotI and inserted between the NheI and NotI sites of pCIneo to generate pCIneo-SP-mCherry. The sequence of the insert was confirmed by DNA sequencing (Micromon, Monash University). […]
(§3) Cellular Expression of Pro-Inflammatory Markers and Mediators by Quantitative Real-Time PCR
(§4) After 2 hours of exposure to Ang II (1 μM) or the RAGE ligand, S100A8/A9 (5 ng/ml) cells were placed in Trizol, mRNA extracted and cDNA synthesized. Changes in the gene expression of the NFκB subunit, p65 (RelA) or NFκB-activated target genes (e.g ICAM-1, VCAM-1) were estimated by quantitative real-time RT-PCR, performed using the TaqMan system based on real-time detection of accumulated fluorescence (ABI Prism 7700, Perkin-Elmer Inc, PE Biosystems, Foster City, CA, USA). Gene expression was normalized to 18S mRNA and reported as fold change compared to the level of expression in untreated control mice/cells, which were given an arbitrary value of 1.
Oligopeptides (Cherry-TAT (control), mCherry-TAT-RAGE362-404 and mCherry-S391A-TAT-RAGE362-404 were generated by transformation of the Escherichia coli strain ClearColi BL21 (DE3; Lucigen). A single transformed colony was inoculated into 50 ml 2YT medium containing 100 μg/ml ampicillin and the culture was grown overnight at 37° C. with shaking at 250 rev/min. 10 ml overnight culture was used to inoculate 1 litre 2YT medium containing 100 μg/ml ampicillin and the culture was grown at 37° C. with shaking at 250 rev/min. When the cultures reached an OD600 of 0.8, the temperature was shifted to 15° C. for 30 min after which protein expression was induced by the addition of 1 mM isopropyl β-D-1-thiogalacto-pyranoside (IPTG). Following the addition of IPTG the cultures were grown for ˜16 h at 15° C. with shaking at 250 rev/min. Cells were harvested by centrifugation (3500 g, 4° C., 20 min) and resuspended in ice-cold lysis buffer (50 mM Tris pH 7.4, 300 mM NaCl, 10 mM imidazole and 5 mM beta-mercaptoethanol). The resuspended cells were sonicated and insoluble material was pelleted by centrifugation (13 000 g, 4° C., 30 min). The supernatant was filtered (0.2 μm) and applied onto a gravity-flow column with a 1 ml Ni-NTA Agarose resin bed volume (Qiagen) pre-equilibrated with lysis buffer. After the supernatant was passed over the resin, the column was washed with 100 ml of wash buffer (20 mM imidazole, 50 mM Tris pH 7.4, 150 mM NaCl, 5 mM beta-mercaptoethanol). His-tagged TAT-mCherry and TAT-mCherry-RAGE peptides were eluted from the resin using elution buffer (250 mM imidazole, 50 mM Tris pH 7.4, 150 mM NaCl, 5 mM beta-mercaptoethanol). […]

[2] = tested on: RAGE ligand-dependent activation of RAGE; experiment: S100A8/A9-induced NFκB activation (p65 gene expression) in CHO cells expressing RAGE constructs; format: cell-based, human
Experimental: as §1, §2, §3, §4
To measure the induction of NFκB activity by 1 μM Ang II, or 5 ng/ml of the RAGE-ligand S100A8/A9 as a signalling control, AT1R—CHO cells were transfected with 0.4 μg of plasmids encoding NFκB-SEAP or β-galactosidase (β-Gal) using Lipofectamine 2000 (Invitrogen) as per manufacturer's instructions. After 24 hours, cells transfected with each plasmid combination were then treated with Ang II (1 μM) or left untreated and incubated for 4 hours before cell supernatants and cell lysates were collected. Cell supernatants were analysed using a chemiluminescent SEAP reporter gene assay (Roche Applied Science) to detect SEAP production after treatment. To control for transfection efficiency, cell lysates were assayed for β-Gal using a commercially available kit (Promega).

[3] = tested on: primary murine aortic endothelial cells (PMAEC); experiment: Expression of pro-inflammatory markers by real-time RT-PCR in primary murine aortic endothelial cells; format: cell-based, mouse
Experimental: Primary aortic endothelial cells (PMAEC) were isolated from the aortae of (wild-type) C57bl6 mice and AGER KO mice and cultured in Dulbecco's modified Eagle's medium (DMEM)/F12 endothelial cell growth supplement (ECGS) supplemented media. Chinese Hamster Ovary (CHO) cells were cultured using F12 media (10% FCS with 2 mM glutamine). Human microvascular endothelial cells (HMEC) were cultured in MCDB 131 medium (10% FCS with 10 mM glutamine, EGF and hydrocortisone).
as §3, §4
Selective Silencing of Gene Expression Using siRNA
PMAEC from C57b/6 mice were also transfected with siRNA to RAGE (2 nM) Ambion, ID:s62119), p65 (RelA) (10 nM; Ambion, ID:s72857), MyD88 (10 nM; Ambion. ID:s201719), PKCζ (10 nM; Ambion, ID:s71716), IQGAP-1, Ambion, ID:s78119), Diaph1 (10 nM; sense5′-[…], antisense 3′-[…]; Invitrogen) or scrambled control #1 (2 nM or 10 nM; Ambion) using Lipofectamine RNAiMAX (Invitrogen) as per manufacturer's instructions. Cells were allowed to recover in media containing 10% FBS for 16 hours prior to treatment with 1 μM Ang II or 5 ng/ml of the RAGE ligand, S100A8/A9, as a signalling control.

Row | Molecule | induction of ICAM-1 gene expression by Ang II (RAGE) | also measured
1 | Q390A-RAGE370-390: glutamine-to-alanine mutant of RAGE370-390 (GEERKAPENQEEEEERAELNA; cytoplasmic region peptide; UniProt Q15109 370-390, looked up, variant Q390A) | lost | –
2 | RAGE379-404: N-truncated RAGE construct, functional substitute of wild type RAGE (QEEEEERAELNQSEEPEAGESSTGGP; UniProt Q15109 379-404, looked up, fragment) | – | ability of the RAGE construct to be activated and mediate pro-inflammatory signalling in response to Ang II [1]: does not result in a loss of function; also recorded: able to be activated
3 | soluble RAGE22-331: decoy receptor with ligand-binding affinity [reference compound] | – | inhibition of S100A8/A9-induced p65 expression ([2]; AT1R-CHO cells also expressing full length RAGE): inhibit; inhibition of Ang II (1 μM)-induced ICAM-1, VCAM-1 and MCP-1 ([3]; PMAEC from wild type mice): do not inhibit; inhibition of S100A8/A9-induced ICAM-1 ([3]; PMAEC from wild type mice): inhibit
4 | mCherry-S391A-RAGE362-404: N-truncated mCherry-RAGE cytosolic tail construct with S391A (LWQRRQRRGEERKAPENQEEEEERAELNQAEEPEAGESSTGGP; also: mCherry fusion; UniProt Q15109 362-404, looked up, fragment S391A) | able to prevent | –
5 | TNFα | – | canonical and non-canonical signalling downstream of NFκB (CXCL2, CXCL12) ([3]; PMAEC from C57bl6 mice): selectively induce canonical signalling
6 | S391A-RAGE22-404: full length RAGE construct with S391 mutated to alanine | able to prevent | –
7 | Q390K-RAGE370-390: glutamine-to-lysine mutant of RAGE370-390 (GEERKAPENQEEEEERAELNK; cytosolic tail peptide; UniProt Q15109 370-390, looked up, variant Q390K) | retain the greatest inhibitory effect | –
8 | E382A-RAGE370-390: alanine mutant of RAGE370-390 (GEERKAPENQEEAEERAELNQ; cytosolic tail peptide; UniProt Q15109 370-390, looked up, variant E382A) | continue to inhibit | –
9 | m-Cherry-RAGE370-395: C-truncated S391X-RAGE mutant fused to mCherry (GEERKAPENQEEEEERAELNQSEEPE; also: mCherry fusion, not in chain; UniProt Q15109 370-395, looked up, fragment) | prevents | –
10 | E380A-RAGE370-390: alanine mutant of RAGE370-390 (GEERKAPENQAEEEERAELNQ; cytosolic tail peptide; UniProt Q15109 370-390, looked up, variant E380A) | continue to inhibit | –
11 | RAGE22-404: full length wild-type RAGE construct | does not affect | –
12 | RAGE385-404: N-truncated RAGE construct eliminating both 380 and 384 (RAELNQSEEPEAGESSTGGP; UniProt Q15109 385-404, looked up, fragment) | – | ability of the RAGE construct to be activated and mediate pro-inflammatory signalling in response to Ang II [1]: loss of the modulatory actions
13 | Q379A-RAGE370-390: glutamine-to-alanine mutant of RAGE370-390 (GEERKAPENAEEEEERAELNQ; cytosolic tail peptide; UniProt Q15109 370-390, looked up, variant Q379A) | lost | –
14 | E384A-RAGE370-390: alanine mutant of RAGE370-390 (GEERKAPENQEEEEARAELNQ; cytosolic tail peptide; UniProt Q15109 370-390, looked up, variant E384A) | continue to inhibit | –
15 | Q379K-RAGE370-390: glutamine-to-lysine mutant of RAGE370-390 (GEERKAPENKEEEEERAELNQ; cytoplasmic region peptide; UniProt Q15109 370-390, looked up, variant Q379K) | retain the greatest inhibitory effect | –
16 | B1 | – | activation of p65-NFκB ([2]; CHO cells expressing the RAGE polypeptide, 5 ng/ml): able to induce activation; induction of pro-inflammatory genes ([3]; PMAEC from AGER KO mice): does not lead to the induction; expression of pro-inflammatory genes (ICAM-1, VCAM-1, TNFα, MCP-1) ([3]; PMAEC from C57bl6 mice, Ang II 1 μM or S100A8/A9): induction; NFκB-dependent induction of VCAM-1 gene expression ([3]; PMAEC with AGER expression silenced using siRNA): preventing

From patent US12060408B2, “Screening assays, modulators and modulation of activation of Receptor for Advanced Glycation End-products (RAGE)” (Monash University, priority 2017, dated 2024)
